Source: US20030073629A1, “Omi and domains thereof that disrupt IAP-caspase interaction” (priority 2001, published 2003)
Where a chain is given by its changes, count along the chain named. Names may count otherwise.

B1: Omi-ΔAVPS: recombinant mature Omi with deletion of the AVPS motif, C-terminal His6 tag (protein)
chain: PPPASPRSQYNFIADVVEKTAPAVVYIEILDRHPFLGREVPISNGSGFVVAADGLIVTNAHVVADRRRVRVRLLSGDTYEAVVTAVDPVADIATLRIQTKEPLPTLPLGRSADVRQGEFVVAMGSPFALQNTITSGIVSSAQRPARDLGLPQTNVEYIQTDAAIDFGNSGGPLVNLDGEVIGVNTMKVTAGISFAIPSDRLREFLHRGEKKNSSSGISGSQRRYIGVMMLTLSPSILAELQLREPSFPDVQHGVLIHKVILGSPAHRAGLRPGDVILAIGEQMVQNAEDVYEAVRTQSQLAVQIRRGRETLTLYVTPEVTEHHHHHH
B2: Smac: mitochondrial IAP-binding protein; recombinant mature form with C-terminal His6 tag (protein, UniProt Q9NR28 22-239, looked up)
Diablo IAP-binding …: LCVPVVANFKKRCFSELIRPWHKTVTIGFGVTLCAVPIAQKSEPHSLSSEALMRRAVSLVTDSTSTFLSQTTYALIEAITEYTKAVYTLTSLYRQYTSLLGKMNSEEEDEVWQVIIGARAEMTSKHQEYLKLETTWMTAVGLSEMAAEAAYQTGADQASITARNHIQLVKLQVEEVHQLSRKAETKLAEAQIEELRQKTQEEGEERAESEQEAYLRED
modifications: C-terminal His6 tag
B3: Omi-S306A: recombinant mature Omi with active site Ser306 mutated to Ala, C-terminal His6 tag (protein)
chain: AVPSPPPASPRSQYNFIADVVEKTAPAVVYIEILDRHPFLGREVPISNGSGFVVAADGLIVTNAHVVADRRRVRVRLLSGDTYEAVVTAVDPVADIATLRIQTKEPLPTLPLGRSADVRQGEFVVAMGSPFALQNTITSGIVSSAQRPARDLGLPQTNVEYIQTDAAIDFGNAGGPLVNLDGEVIGVNTMKVTAGISFAIPSDRLREFLHRGEKKNSSSGISGSQRRYIGVMMLTLSPSILAELQLREPSFPDVQHGVLIHKVILGSPAHRAGLRPGDVILAIGEQMVQNAEDVYEAVRTQSQLAVQIRRGRETLTLYVTPEVTEHHHHHH
B4: AAAS: C-terminal Flag-tagged Omi precursor mutant with the AVPS motif mutated to AAAS (protein, UniProt O43464 1-458, looked up, variant V135A P136A)
chain: MAAPRAGRGAGWSLRAWRALGGIRWGRRPRLTPDLRALLTSGTSDPRARVTYGTPSLWARLSVGVTEPRACLTSGTPGPRAQLTAVTPDTRTREASENSGTRSRAWLAVALGAGGAVLLLLWGGGRGPPAVLAAAASPPPASPRSQYNFIADVVEKTAPAVVYIEILDRHPFLGREVPISNGSGFVVAADGLIVTNAHVVADRRRVRVRLLSGDTYEAVVTAVDPVADIATLRIQTKEPLPTLPLGRSADVRQGEFVVAMGSPFALQNTITSGIVSSAQRPARDLGLPQTNVEYIQTDAAIDFGNSGGPLVNLDGEVIGVNTMKVTAGISFAIPSDRLREFLHRGEKKNSSSGISGSQRRYIGVMMLTLSPSILAELQLREPSFPDVQHGVLIHKVILGSPAHRAGLRPGDVILAIGEQMVQNAEDVYEAVRTQSQLAVQIRRGRETLTLYVTPEVTE
modifications: full-length C-terminal Flag tag
B5: Omi precursor: C-terminally Flag-tagged full-length Omi precursor (SEQ ID NO:1) expressed from a transfected construct (protein, listed as Homo sapiens)
chain: B4 chain with A135V, A136P
modifications: C-terminal Flag tag
B6: active site Omi precursor mutant: S306A Omi precursor with mutant VVAS sequence instead of the AVPS motif (protein, UniProt O43464 1-458, looked up, variant A134V P136A S306A)
chain: B4 chain with A134V, A135V, S306A
modifications: full-length

Assays:
[1] = target: T1, caspase-9 interaction with XIAP (procaspase-3 activation) (Homo sapiens, UniProt P98170); assay: Procaspase-3 activation in XIAP-containing S100 extracts stimulated with cytochrome c and dATP; type: biochemical; conditions: S100 extracts with purified XIAP, cytochrome c plus dATP; 10, 50 or 300 ng protein
T1 construct: caspase-9: endogenous in 293T/HEK293 S100 extract
T1 sequence (P98170 whole entry): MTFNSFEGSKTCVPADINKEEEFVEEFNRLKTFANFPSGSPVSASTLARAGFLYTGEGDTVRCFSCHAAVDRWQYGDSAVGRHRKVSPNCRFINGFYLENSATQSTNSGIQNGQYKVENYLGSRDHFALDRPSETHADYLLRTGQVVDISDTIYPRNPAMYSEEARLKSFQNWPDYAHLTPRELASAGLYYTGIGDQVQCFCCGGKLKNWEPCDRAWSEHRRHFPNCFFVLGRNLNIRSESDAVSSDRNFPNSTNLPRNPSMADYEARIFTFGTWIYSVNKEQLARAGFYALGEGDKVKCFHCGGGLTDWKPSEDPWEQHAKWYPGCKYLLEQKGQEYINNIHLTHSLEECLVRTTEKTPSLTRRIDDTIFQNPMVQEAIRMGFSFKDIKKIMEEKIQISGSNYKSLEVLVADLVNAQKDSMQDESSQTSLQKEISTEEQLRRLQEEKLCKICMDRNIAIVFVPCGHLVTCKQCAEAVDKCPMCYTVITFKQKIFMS
Protocol: FIG. 17 is a scanned image of an autoradiogram, representing SDS-PAGE analysis of ^35S-labeled procaspase-3 following stimulation of 293T S100 extracts (20μg) mixed with purified XIAP (50 ng) with cytochrome c (0.5 μg) plus dATP (1 mM), in the presence of increasing amounts (10, 50, or 300 ng, respectively) of purified mature WT Omi, Omi-ΔAVPS, Omi-S306A, or mature Smac in 10 μl reaction volume. In the fifth lane, S100 extracts were incubated with. 300 ng of WT Omi without XIAP.
Next, it was determined whether Omi, like Smac, promotes caspase-9 activity in HEK293 S100 extracts in the presence of XIAP. To measure the caspase-9 activity in these extracts, ^35S-labeled procaspase-3 was added to the S100 extracts and stimulated the extracts with cytochrome c and dATP. […] These observations indicate that Omi, like Smac, is able to disrupt the interaction of caspase-9 with XIAP in the S100 extracts to promote procaspase-3 activation.

[2] = target: T2, GST-BIR3 fusion protein (BIR3 domain of human XIAP) (Homo sapiens, UniProt P98170); assay: Interaction of purified recombinant proteins with GST-BIR3 fusion protein (SDS-PAGE, Coomassie); type: binding; conditions: purified C-terminal His6-tagged recombinant protein; wild type GST-BIR3
T2 construct: Omi associates directly with the BIR3 domain of XIAP
T2 sequence (P98170 238-358 limits assumed): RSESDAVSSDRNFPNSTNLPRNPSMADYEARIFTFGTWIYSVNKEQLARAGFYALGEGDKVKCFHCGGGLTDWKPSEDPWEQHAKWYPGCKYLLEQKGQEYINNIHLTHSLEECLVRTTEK
From the text: (§1) FIGS. 7A and 7B are scanned images of Coomassie stained gels representing SDS-PAGE analysis of purified C-terminal His6-tagged recombinant wild type mature Omi (WT), Omi-ΔAVPS, Omi-S306A, and mature Smac (7A) and recombinant Omi and Smac proteins with GST-BIR1, GST-BIR2, GST-BIR3, or GST-BIR3-E314S fusion proteins (7B).
(§2) To determine whether a recombinant Omi lacking the first 133 residues (mature Omi) can interact with the GST-BIR3 fusion protein, this protein was expressed with a C-terminal His6 tag in bacteria and purified to apparent homogeneity (see FIG. 7B). […] FIGS. 7A and 7B show scanned images of Coomassie stained gels representing SDS-PAGE analysis of purified C-terminal His6-tagged recombinant wild type mature Omi (WT), Omi-ΔAVPS, Omi-S306A, and mature Smac (FIG. 7A) and recombinant Omi and Smac proteins with GST-BIR1, 2, GST-BIR3 or GST-BIR3-E314S fusion proteins (FIG. 7B).

[3] = system: GST-BIR1, 2 fusion protein; assay: Interaction of purified recombinant proteins with GST-BIR1, 2 fusion protein; type: binding, human; conditions: purified C-terminal His6-tagged recombinant protein
Chain of GST-BIR1, 2 fusion protein (P98170 124-240 limits assumed): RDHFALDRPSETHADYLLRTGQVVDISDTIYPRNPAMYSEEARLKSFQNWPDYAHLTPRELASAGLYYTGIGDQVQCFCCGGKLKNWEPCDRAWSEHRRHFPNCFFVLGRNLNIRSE
From the text: as §1, §2

[4] = target: T3, GST-BIR3-E314S mutant (Homo sapiens, UniProt P98170, E314S); assay: Interaction of purified recombinant proteins with GST-BIR3-E314S mutant; type: binding; conditions: purified C-terminal His6-tagged recombinant protein
T3 construct: Omi associates directly with the BIR3 domain of XIAP
T3 sequence (P98170 238-358 E314S limits assumed): as the sequence (P98170 238-358 limits assumed) above, with E77S counted along it
From the text: as §1
To confirm that Omi associates directly with the BIR3 domain of XIAP but not with the Smac protein, Smac was depleted from the 293 extracts using a Smac monoclonal antibody. Specifically, 293 cellular extracts were either left untreated (undepleted lane of FIG. 4) or depleted with a Smac antibody (lane depleted of FIG. 4). The undepleted and depleted extracts were incubated with the GST-BIR3 protein and the bound proteins were eluted as above. The eluates were then analyzed by far-western blotting with ^35S-XIAP and by western blotting with the Smac antibody as described above (see FIG. 4, left and right panels, respectively). […] The last lane of each panel in FIG. 4 represents the 293 cellular extracts that were bound to the E314S mutant GST-BIR3 fusion protein. […] The asterisk in FIG. 4 indicates non-specific bands and the arrow indicates the IgG band. […]

[5] = target: T4, endogenous XIAP (Homo sapiens, UniProt P98170); assay: Co-immunoprecipitation with endogenous XIAP in transfected 293T cells; type: cell-based; conditions: 293T cells transfected with C-terminal Flag-tagged Omi precursors, XIAP western blot
T4 construct: endogenous in cells; host or cells: 293T cells
T4 sequence (P98170 whole entry): as the sequence (P98170 whole entry) above
From the text: FIG. 9 is a scanned image of a blot representing western blot analysis using an XIAP monoclonal antibody (upper panel) or Flag antibody (middle panel) of 293T cells transfected with constructs encoding C-terminal Flag-tagged Omi wild type or mutant precursors and immunoprecipitated with Flag antibody. The lower panel is a scanned image of a blot representing total extracts probed with the XIAP antibody. Arrows indicate IgG bands.

[6] = system: Hela cells; assay: Staurosporine-induced apoptosis of Hela cells transfected with Omi precursor; type: cell-based, human; conditions: for apoptosis potentiation compared to vector-transfected cells: staurosporine, indicated or higher doses
Protocol: FIG. 18 is a bar graphic representation of the percentages of GFP-positive apoptotic HeLa cells following treatment with the indicated doses of staurosporine for five hours, 24 hours after transfection. The Hela cells were transfected with an empty vector or a construct encoding a C-terminally Flag-tagged Omi precursor together with pEGFP-N1 plasmid (Clontech) at a 4:1 ratio. The AVPS motif in the […] Omi precursor is mutated to a VVAS sequence (SEQ ID NO:10) to prevent binding to IAPs. The Insert represents the expression of mature Omi wild type and Omi S306A mutant in the transfected cells as determined by immunoblotting with Flag antibody.
To determine whether release of Omi can potentiate apoptosis, human Hela cells were transfected with the Omi precursor, and the cells were stimulated with different doses of staurosporine.

Molecule	promotion of procaspase-3 activation [1]	interaction with GST-BIR3 fusion protein [2]	apoptosis potentiation compared to vector-transfected cells ([6]; five hours)	also measured
B1	abolished its caspase-promoting activity	completely abolished its interaction with the GST-BIR3 fusion protein		
B2		able to interact equally with the wild type GST-BIR3 protein		interaction with GST-BIR1, 2 fusion protein [3]: able to interact with the GST-BIR1, 2 fusion protein; interaction with GST-BIR3-E314S mutant [4]: not with the GST-BIR3-E314S mutant
B3	able to promote procaspase-3 activation in the XIAP-containing S100 extracts almost to the same extent as Smac	did not affect its interaction with GST-BIR3		
B4				interaction with endogenous XIAP in vivo [5]: abolished its interaction with endogenous XIAP
B5			increased apoptosis was observed	transfected cells showing signs of apoptosis ([6]; 500 nM staurosporine, five hours, 24 hours after transfection, vector transfected cells ~20%): ~43%; induction of apoptosis ([6]; transiently expressed, absence of staurosporine): did not induce apoptosis
B6			No apoptosis potentiation was observed	
